Data: patent EP4578875A1

Molecular target: CD3 (antibody antigen coated on the ELISA plate in Examples 1 to 3) (Homo sapiens (Human)) (UniProt P07766)
Experiment: binding activity after activation of the conjugate; method not described

CD3 (antibody antigen coated on the ELISA plate in Examples 1 to 3) (Homo sapiens (Human)), sequence (P07766 23-126 limits assumed): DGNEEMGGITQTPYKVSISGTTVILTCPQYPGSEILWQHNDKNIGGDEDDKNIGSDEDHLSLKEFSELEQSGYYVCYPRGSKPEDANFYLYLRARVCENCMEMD

| Binder | Recovery of binding force after activation (%) |
| --- | --- |
| anti-CD3 VH-Y61C mutant conjugated with PEG40K, after activation (antibody, V domains shown, Cys 61 with what is left of the linker after activation (PEG40K blocker released); structure not given) VH: EVQLVESGGGLVQPGGSLRLSCAASGFTFSTYAMNWVRQAPGKGLEWVGRIRSKYNNYATCYADSVKDRFTISRDDSKNSLYLQMNSLKTEDTAVYYCARHGNFGNSYVSWFAYWGQGTLVTVSS VL: QTVVTQEPSLTVSPGGTVTLTCRSSTGAVTTSNYANWVQQKPGQAPRGLIGGTNKRAPGVPARFSGSLLGDKAALTLLGAQPEDEAEYFCALWYSNLWVFGGGTKLTVL | 100 |
| anti-CD3 VH-Y61C mutant conjugated with PEG20K, after activation (antibody, V domains shown, Cys 61 with what is left of the linker after activation (PEG20K blocker released); structure not given) VH: EVQLVESGGGLVQPGGSLRLSCAASGFTFSTYAMNWVRQAPGKGLEWVGRIRSKYNNYATCYADSVKDRFTISRDDSKNSLYLQMNSLKTEDTAVYYCARHGNFGNSYVSWFAYWGQGTLVTVSS VL: QTVVTQEPSLTVSPGGTVTLTCRSSTGAVTTSNYANWVQQKPGQAPRGLIGGTNKRAPGVPARFSGSLLGDKAALTLLGAQPEDEAEYFCALWYSNLWVFGGGTKLTVL | 100 |
| anti-CD3 VH-Y61C mutant conjugated with PEG10K, after activation (antibody, V domains shown, Cys 61 with what is left of the linker after activation (PEG10K blocker released); structure not given) VH: EVQLVESGGGLVQPGGSLRLSCAASGFTFSTYAMNWVRQAPGKGLEWVGRIRSKYNNYATCYADSVKDRFTISRDDSKNSLYLQMNSLKTEDTAVYYCARHGNFGNSYVSWFAYWGQGTLVTVSS VL: QTVVTQEPSLTVSPGGTVTLTCRSSTGAVTTSNYANWVQQKPGQAPRGLIGGTNKRAPGVPARFSGSLLGDKAALTLLGAQPEDEAEYFCALWYSNLWVFGGGTKLTVL | 100 |
| anti-CD3 VH-Y61C mutant conjugated with PEG5K, after activation (antibody, V domains shown, Cys 61 with what is left of the linker after activation (PEG5K blocker released); structure not given) VH: EVQLVESGGGLVQPGGSLRLSCAASGFTFSTYAMNWVRQAPGKGLEWVGRIRSKYNNYATCYADSVKDRFTISRDDSKNSLYLQMNSLKTEDTAVYYCARHGNFGNSYVSWFAYWGQGTLVTVSS VL: QTVVTQEPSLTVSPGGTVTLTCRSSTGAVTTSNYANWVQQKPGQAPRGLIGGTNKRAPGVPARFSGSLLGDKAALTLLGAQPEDEAEYFCALWYSNLWVFGGGTKLTVL | 100 |

Molecular target: CD3 (antibody antigen coated on the ELISA plate in Examples 1 to 3) (Homo sapiens (Human)) (UniProt P07766)
Experiment: binding activity after conjugation with different R1; method not described

| Binder | Blocking fold after conjugation [fold] |
| --- | --- |
| anti-CD3 antibody mutant VH-Y61C conjugated with Molecule I (+20K) (antibody, V domains shown, Molecule I (+20K; cleavable linker with PEG20K, shown only as a drawing) conjugated on Cys 61) VH: EVQLVESGGGLVQPGGSLRLSCAASGFTFSTYAMNWVRQAPGKGLEWVGRIRSKYNNYATCYADSVKDRFTISRDDSKNSLYLQMNSLKTEDTAVYYCARHGNFGNSYVSWFAYWGQGTLVTVSS VL: QTVVTQEPSLTVSPGGTVTLTCRSSTGAVTTSNYANWVQQKPGQAPRGLIGGTNKRAPGVPARFSGSLLGDKAALTLLGAQPEDEAEYFCALWYSNLWVFGGGTKLTVL | 400 |
| anti-CD3 VH-Y61C mutant conjugated with cleavable linker and R1 = PEG10K (antibody, V domains shown, cleavable linker peptide P with blocker PEG10K on Cys 61) VH: EVQLVESGGGLVQPGGSLRLSCAASGFTFSTYAMNWVRQAPGKGLEWVGRIRSKYNNYATCYADSVKDRFTISRDDSKNSLYLQMNSLKTEDTAVYYCARHGNFGNSYVSWFAYWGQGTLVTVSS VL: QTVVTQEPSLTVSPGGTVTLTCRSSTGAVTTSNYANWVQQKPGQAPRGLIGGTNKRAPGVPARFSGSLLGDKAALTLLGAQPEDEAEYFCALWYSNLWVFGGGTKLTVL | 20 |
| anti-CD3 VH-Y61C mutant conjugated with cleavable linker and R1 = PEG5K (antibody, V domains shown, cleavable linker peptide P with blocker PEG5K on Cys 61) VH: EVQLVESGGGLVQPGGSLRLSCAASGFTFSTYAMNWVRQAPGKGLEWVGRIRSKYNNYATCYADSVKDRFTISRDDSKNSLYLQMNSLKTEDTAVYYCARHGNFGNSYVSWFAYWGQGTLVTVSS VL: QTVVTQEPSLTVSPGGTVTLTCRSSTGAVTTSNYANWVQQKPGQAPRGLIGGTNKRAPGVPARFSGSLLGDKAALTLLGAQPEDEAEYFCALWYSNLWVFGGGTKLTVL | 10 |
| anti-CD3 VH-Y61C mutant conjugated with cleavable linker and R1 = PEG40K (antibody, V domains shown, cleavable linker peptide P with blocker PEG40K on Cys 61) VH: EVQLVESGGGLVQPGGSLRLSCAASGFTFSTYAMNWVRQAPGKGLEWVGRIRSKYNNYATCYADSVKDRFTISRDDSKNSLYLQMNSLKTEDTAVYYCARHGNFGNSYVSWFAYWGQGTLVTVSS VL: QTVVTQEPSLTVSPGGTVTLTCRSSTGAVTTSNYANWVQQKPGQAPRGLIGGTNKRAPGVPARFSGSLLGDKAALTLLGAQPEDEAEYFCALWYSNLWVFGGGTKLTVL | 500 |

Molecular target: CD3 (antibody antigen coated on the ELISA plate in Examples 1 to 3) (Homo sapiens (Human)) (UniProt P07766)
Experiment: binding activity of the conjugated mutant compared with the wild-type antibody (ELISA as in Example 1)

| Binder | Blocking fold after conjugation (+20K) [fold] |
| --- | --- |
| anti-CD3 antibody mutant VH-Y61C conjugated with Molecule I (+20K) (antibody, V domains shown, Molecule I (+20K; cleavable linker with PEG20K, shown only as a drawing) conjugated on Cys 61) VH: EVQLVESGGGLVQPGGSLRLSCAASGFTFSTYAMNWVRQAPGKGLEWVGRIRSKYNNYATCYADSVKDRFTISRDDSKNSLYLQMNSLKTEDTAVYYCARHGNFGNSYVSWFAYWGQGTLVTVSS VL: QTVVTQEPSLTVSPGGTVTLTCRSSTGAVTTSNYANWVQQKPGQAPRGLIGGTNKRAPGVPARFSGSLLGDKAALTLLGAQPEDEAEYFCALWYSNLWVFGGGTKLTVL | 400 |
| anti-CD3 antibody mutant VL-W93C conjugated with Molecule I (+20K) (antibody, V domains shown, Molecule I (+20K, shown only as a drawing) conjugated on Cys 93) VH: EVQLVESGGGLVQPGGSLRLSCAASGFTFSTYAMNWVRQAPGKGLEWVGRIRSKYNNYATYYADSVKDRFTISRDDSKNSLYLQMNSLKTEDTAVYYCARHGNFGNSYVSWFAYWGQGTLVTVSS VL: QTVVTQEPSLTVSPGGTVTLTCRSSTGAVTTSNYANWVQQKPGQAPRGLIGGTNKRAPGVPARFSGSLLGDKAALTLLGAQPEDEAEYFCALCYSNLWVFGGGTKLTVL | 5 |
| anti-CD3 antibody mutant VL-Y94C conjugated with Molecule I (+20K) (antibody, V domains shown, Molecule I (+20K, shown only as a drawing) conjugated on Cys 94) VH: EVQLVESGGGLVQPGGSLRLSCAASGFTFSTYAMNWVRQAPGKGLEWVGRIRSKYNNYATYYADSVKDRFTISRDDSKNSLYLQMNSLKTEDTAVYYCARHGNFGNSYVSWFAYWGQGTLVTVSS VL: QTVVTQEPSLTVSPGGTVTLTCRSSTGAVTTSNYANWVQQKPGQAPRGLIGGTNKRAPGVPARFSGSLLGDKAALTLLGAQPEDEAEYFCALWCSNLWVFGGGTKLTVL | 30 |
| anti-CD3 antibody mutant VL-N96C conjugated with Molecule I (+20K) (antibody, V domains shown, Molecule I (+20K, shown only as a drawing) conjugated on Cys 96) VH: EVQLVESGGGLVQPGGSLRLSCAASGFTFSTYAMNWVRQAPGKGLEWVGRIRSKYNNYATYYADSVKDRFTISRDDSKNSLYLQMNSLKTEDTAVYYCARHGNFGNSYVSWFAYWGQGTLVTVSS VL: QTVVTQEPSLTVSPGGTVTLTCRSSTGAVTTSNYANWVQQKPGQAPRGLIGGTNKRAPGVPARFSGSLLGDKAALTLLGAQPEDEAEYFCALWYSCLWVFGGGTKLTVL | 2 |
